We go through two molecules from patent US6114506, “Composition and method for enhancing fibrinolysis” (General Hospital Corporation, dated 2000).

In assay [1] the target is T1, human alpha-2-antiplasmin (human, UniProt P08697, 125I label in the radioimmunoassays of Example 1; biotin in the competition assay of Example 5; unlabelled in the ELISA, plasmin and clot lysis assays).
T1 sequence: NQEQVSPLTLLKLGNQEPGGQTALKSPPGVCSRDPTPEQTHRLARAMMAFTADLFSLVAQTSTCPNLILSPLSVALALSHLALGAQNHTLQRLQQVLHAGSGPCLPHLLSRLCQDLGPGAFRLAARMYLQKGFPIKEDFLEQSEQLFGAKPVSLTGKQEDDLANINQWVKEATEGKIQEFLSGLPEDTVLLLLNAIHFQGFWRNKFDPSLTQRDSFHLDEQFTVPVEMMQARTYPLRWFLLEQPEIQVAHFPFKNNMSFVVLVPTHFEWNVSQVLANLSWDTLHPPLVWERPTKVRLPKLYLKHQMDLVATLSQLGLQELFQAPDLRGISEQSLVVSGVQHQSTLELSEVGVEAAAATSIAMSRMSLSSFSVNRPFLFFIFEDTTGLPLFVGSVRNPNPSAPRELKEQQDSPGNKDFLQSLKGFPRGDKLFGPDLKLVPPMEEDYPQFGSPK
Briefly: ELISA: plates coated with α2-antiplasmin (American Diagnostica), anti-human kappa conjugate. Background: In an ELISA, binding on a coated surface is turned into a signal by an enzyme label.

Assay [2] has as its target T1, human alpha-2-antiplasmin.

B1: h77A3-1 (humanized 77A3) (antibody, V domains shown)
VH: QIQLVQSGSELKKPGASVKISCKASGYTFTNYGMNWVRQAPGQGLEWMGWINTKSGEPTYAEEFKGRFVFSLDTSVTTAYLQISSLKAEDTAVYFCARWVPGTYAMDYWGQGTTVTVSS
VL: DIQMTQSPSSLSASVGDRVTITCRASGNIHNYLAWYQQKQGKSPQLLVYNAKTLASGVPSRFSGSGSGTDFTLTISSLQPEDFGSHYCQHFWTTPWTFGGGTKLEIK
B1: in assay [1], the binding result is on record as “binds”.

B2: h77A3-2 (humanized 77A3) (antibody, V domains shown)
VH: QIQLVQSGAEVKKPGASVKISCKASGYTFTNYGMNWVRQAPGQGLEWMGWINTKSGEPTYAEEFKGRFTFTLDTSTSTAYLEIRSLRSDDTAVYFCARW
VL: DIQMTQSPSSLSASVGDRVTITCRASGNIHNYLAWYQQKQGKSPQLLVYNAKTLASGVPSRFSGSGSGTDFTLTISSLQPEDFGSHY
In turn, B2 had a plasmin assay with chromogenic substrate: loss in activity in assay [2] of 20 to 30%.
